The results in this text go back to US20070060521A1.

This test deals with IL-6 receptor on U266 human myeloma cells (human) (UniProt P08887). The experiment in a line: cell-based or functional assay.
Chain of IL-6 receptor on U266 human myeloma cells (human) (P08887 20-468): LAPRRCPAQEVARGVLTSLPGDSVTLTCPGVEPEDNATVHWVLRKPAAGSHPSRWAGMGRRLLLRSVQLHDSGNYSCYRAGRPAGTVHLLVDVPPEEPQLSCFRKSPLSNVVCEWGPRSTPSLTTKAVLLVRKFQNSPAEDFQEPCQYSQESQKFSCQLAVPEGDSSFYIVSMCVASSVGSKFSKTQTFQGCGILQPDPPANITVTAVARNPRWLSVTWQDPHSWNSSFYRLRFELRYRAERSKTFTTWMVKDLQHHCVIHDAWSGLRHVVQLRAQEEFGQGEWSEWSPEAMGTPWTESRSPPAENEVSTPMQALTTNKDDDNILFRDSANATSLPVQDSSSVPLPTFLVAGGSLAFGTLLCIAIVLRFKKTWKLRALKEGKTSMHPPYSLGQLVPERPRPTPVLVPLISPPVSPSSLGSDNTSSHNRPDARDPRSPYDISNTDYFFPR

Substance Sant7, IL-6 superantagonist (ligand) had a reduction of constitutive STAT3 DNA-binding (EMSA) in U266 cells of 70%.
